# Results: patent US20240084042A1 (Genentech, published 2024)
# T1: human KLK5 (human, UniProt Q9Y337 67-293)
# T1 construct: also called huKLK5; KLK5 AMC
# T1 sequence: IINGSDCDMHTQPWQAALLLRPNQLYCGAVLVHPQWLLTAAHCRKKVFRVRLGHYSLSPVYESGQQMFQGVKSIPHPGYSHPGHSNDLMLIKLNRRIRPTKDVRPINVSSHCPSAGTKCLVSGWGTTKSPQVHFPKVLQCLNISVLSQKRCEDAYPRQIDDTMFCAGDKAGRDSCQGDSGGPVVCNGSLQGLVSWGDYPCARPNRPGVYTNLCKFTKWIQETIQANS
# T2: cynomolgus monkey KLK5 (cynomolgus monkey, UniProt Q9Y337 67-293 (human entry))
# T2 construct: also called cyno KLK5
# T2 chain: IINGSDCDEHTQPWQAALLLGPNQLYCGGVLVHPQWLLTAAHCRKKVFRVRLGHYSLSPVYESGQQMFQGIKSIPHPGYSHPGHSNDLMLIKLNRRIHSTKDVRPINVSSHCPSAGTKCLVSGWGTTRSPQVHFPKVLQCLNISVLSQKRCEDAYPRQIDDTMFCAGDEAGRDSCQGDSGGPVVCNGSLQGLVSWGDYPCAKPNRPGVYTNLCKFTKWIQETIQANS
# Experiments:
# human KLK5 = biological target: T1, human KLK5; assay: SPR, one-armed monovalent antibody
# cynomolgus monkey KLK5 = biological target: T2, cynomolgus monkey KLK5; assay: SPR, one-armed monovalent antibody
Binder,Kd (human KLK5) [nM],koff (human KLK5) [s⁻¹],kon (human KLK5) [M⁻¹ s⁻¹],Kd (cynomolgus monkey KLK5) [nM],koff (cynomolgus monkey KLK5) [s⁻¹],kon (cynomolgus monkey KLK5) [M⁻¹ s⁻¹]
"OA.hu.9H5.H14L4.G54A.G98Q.H89V (antibody, V domains shown, One-armed (OA) monovalent anti-KLK5 antibody with a human IgG1 Fc, with Q38E/Q39K; constant regions and dummy Fc chain not specified) VH: EVQLVESGGGLIQPGGSLRLSCAASGFSLSSYGVSWVRKAPGKGLEYVGFIGSAGFAYYASWAKSRFTISRDNSKNTLYLQMNSLRAEDTAVYYCARDDVQGGKSLDIWGQGTLVTVSS VL: DIQMTQSPSSLSASVGDRVTITCQASQSISSYLSWYQEKPGKAPKLLIYSASTLASGVPSRFSGSGSGTDFTLTISSLQPEDFATYYCVQDYTSSNVDNTFGGGTKVEIK",0.000348,2.97e-06,8.54e+06,0.00298,6.52e-05,2.19e+07
"OA.hu.9H5.H14L4.G54A.H89V.S95Y (antibody, V domains shown, One-armed (OA) monovalent anti-KLK5 antibody with a human IgG1 Fc, with Q38E/Q39K; constant regions and dummy Fc chain not specified) VH: EVQLVESGGGLIQPGGSLRLSCAASGFSLSSYGVSWVRKAPGKGLEYVGFIGSAGFAYYASWAKSRFTISRDNSKNTLYLQMNSLRAEDTAVYYCARDDVGGGKSLDIWGQGTLVTVSS VL: DIQMTQSPSSLSASVGDRVTITCQASQSISSYLSWYQEKPGKAPKLLIYSASTLASGVPSRFSGSGSGTDFTLTISSLQPEDFATYYCVQDYTSYNVDNTFGGGTKVEIK",0.0196,1.37e-05,699000,0.0172,7.36e-05,4.28e+06
"OA.hu.9H5.H14L4.G54A.H89V (antibody, V domains shown, One-armed (OA) monovalent anti-KLK5 antibody with a human IgG1 Fc, with Q38E/Q39K; constant regions and dummy Fc chain not specified) VH: EVQLVESGGGLIQPGGSLRLSCAASGFSLSSYGVSWVRKAPGKGLEYVGFIGSAGFAYYASWAKSRFTISRDNSKNTLYLQMNSLRAEDTAVYYCARDDVGGGKSLDIWGQGTLVTVSS VL: DIQMTQSPSSLSASVGDRVTITCQASQSISSYLSWYQEKPGKAPKLLIYSASTLASGVPSRFSGSGSGTDFTLTISSLQPEDFATYYCVQDYTSSNVDNTFGGGTKVEIK",0.0102,3.85e-05,3.79e+06,0.00893,0.00011,1.24e+07
"OA.hu.9H5.H14L4.G54A.G98Q.S95Y (antibody, V domains shown, One-armed (OA) monovalent anti-KLK5 antibody with a human IgG1 Fc, with Q38E/Q39K; constant regions and dummy Fc chain not specified) VH: EVQLVESGGGLIQPGGSLRLSCAASGFSLSSYGVSWVRKAPGKGLEYVGFIGSAGFAYYASWAKSRFTISRDNSKNTLYLQMNSLRAEDTAVYYCARDDVQGGKSLDIWGQGTLVTVSS VL: DIQMTQSPSSLSASVGDRVTITCQASQSISSYLSWYQEKPGKAPKLLIYSASTLASGVPSRFSGSGSGTDFTLTISSLQPEDFATYYCHQDYTSYNVDNTFGGGTKVEIK",0.00994,2.71e-05,2.73e+06,0.0154,9.18e-05,5.97e+06
"OA.hu.9H5.H14L4 (antibody, V domains shown, One-armed (OA) monovalent anti-KLK5 antibody with a human IgG1 Fc, with Q38E/Q39K; constant regions and dummy Fc chain not specified) VH: EVQLVESGGGLIQPGGSLRLSCAASGFSLSSYGVSWVRKAPGKGLEYVGFIGSGGFAYYASWAKSRFTISRDNSKNTLYLQMNSLRAEDTAVYYCARDDVGGGKSLDIWGQGTLVTVSS VL: DIQMTQSPSSLSASVGDRVTITCQASQSISSYLSWYQEKPGKAPKLLIYSASTLASGVPSRFSGSGSGTDFTLTISSLQPEDFATYYCHQDYTSSNVDNTFGGGTKVEIK",0.254,0.000272,1.07e+06,0.0623,0.000697,1.12e+07

# Further lines, results first:
Kd (human KLK5) [nM],koff (human KLK5) [s⁻¹],kon (human KLK5) [M⁻¹ s⁻¹],Kd (cynomolgus monkey KLK5) [nM],koff (cynomolgus monkey KLK5) [s⁻¹],kon (cynomolgus monkey KLK5) [M⁻¹ s⁻¹],Binder
0.0186,4.46e-05,2.4e+06,0.00978,0.000145,1.48e+07,"OA.hu.9H5.H14L4.G98Q.H89V (antibody, V domains shown, One-armed (OA) monovalent anti-KLK5 antibody with a human IgG1 Fc, with Q38E/Q39K; constant regions and dummy Fc chain not specified) VH: EVQLVESGGGLIQPGGSLRLSCAASGFSLSSYGVSWVRKAPGKGLEYVGFIGSGGFAYYASWAKSRFTISRDNSKNTLYLQMNSLRAEDTAVYYCARDDVQGGKSLDIWGQGTLVTVSS VL: DIQMTQSPSSLSASVGDRVTITCQASQSISSYLSWYQEKPGKAPKLLIYSASTLASGVPSRFSGSGSGTDFTLTISSLQPEDFATYYCVQDYTSSNVDNTFGGGTKVEIK"
0.0502,3.94e-05,785000,0.0361,0.000145,4.02e+06,"OA.hu.9H5.H14L4.G98Q.S95Y (antibody, V domains shown, One-armed (OA) monovalent anti-KLK5 antibody with a human IgG1 Fc, with Q38E/Q39K; constant regions and dummy Fc chain not specified) VH: EVQLVESGGGLIQPGGSLRLSCAASGFSLSSYGVSWVRKAPGKGLEYVGFIGSGGFAYYASWAKSRFTISRDNSKNTLYLQMNSLRAEDTAVYYCARDDVQGGKSLDIWGQGTLVTVSS VL: DIQMTQSPSSLSASVGDRVTITCQASQSISSYLSWYQEKPGKAPKLLIYSASTLASGVPSRFSGSGSGTDFTLTISSLQPEDFATYYCHQDYTSYNVDNTFGGGTKVEIK"
0.0199,4.91e-05,2.47e+06,0.033,0.000133,4.02e+06,"OA.hu.9H5.H14L4.G98Q.H89V.S95Y (antibody, V domains shown, One-armed (OA) monovalent anti-KLK5 antibody with a human IgG1 Fc, with Q38E/Q39K; constant regions and dummy Fc chain not specified) VH: EVQLVESGGGLIQPGGSLRLSCAASGFSLSSYGVSWVRKAPGKGLEYVGFIGSGGFAYYASWAKSRFTISRDNSKNTLYLQMNSLRAEDTAVYYCARDDVQGGKSLDIWGQGTLVTVSS VL: DIQMTQSPSSLSASVGDRVTITCQASQSISSYLSWYQEKPGKAPKLLIYSASTLASGVPSRFSGSGSGTDFTLTISSLQPEDFATYYCVQDYTSYNVDNTFGGGTKVEIK"
